Among the data in publication PMC6028451, “Cotranslational protein targeting to the membrane: Nascent-chain transfer in a quaternary complex formed at the translocon” (Scientific Reports, 2018) are Kd values, retold here.

In this assay the target is T1, SecYEG translocon embedded in phospholipid-containing nanodiscs (Escherichia coli, UniProt P0AGA2 1-443; P0AG96 1-127; P0AG99 1-110).
T1 construct: SecY, Escherichia coli; SecE, Escherichia coli; SecG, Escherichia coli; membrane scaffold protein MSP1D1, the belt of the nanodisc; the disc holds E. coli total lipids; also called non-mutated SecYEG; copies: 1 + 1 + 1 + 2
In words: not stated; proOmpA75-RNC with SecYEG in nanodiscs (Supplementary Fig. S4b). Particulars: both partners purified.

B1: proOmpA75-RNC: ribosome-nascent-chain complex carrying the nascent chain of outer-membrane protein A (complex)
chain: MKKTAIAIAVALAGFATVAQAAPKDNTWYTGAKLGWSQYHDTGFINNNGPTHENQLGAGAFGGYQVNPYVGFEMG
Take B1: binding was characterised by a dissociation constant (Kd) of 0.015 ± 0.003 µM.

What is called Kd is the equilibrium constant for the complex coming apart. A low value points to a tighter complex.
